Data reported in the DeepSol protein solubility set.

Assay: soluble on expression in E. coli; label from the status in PepcDB or PDB records

Row | Sequence | soluble on expression in E. coli
1 | MGSDKIHHHHHHMEPHWDDMKVFLAVAREESLSGAGRQLKLDPATVGRRIARLESAYDTPLFAKSPQGYTLTAAGERLLSHGEQAEAAMRSASEALAGTTEGLTGQIRIGAPDGSANYLLPQVCAQISDENPELDIQILALPRIINLSRREADMAVTVSAPTAGHLLVQKITDYKLHMVASRRYLRGHPPIETLADLRGHRMIGYIPDMIFDRELDYLNDIGIERVALASNSVSVQLRQAGHGSGICVAHDFTLPFHGNLRRILTDQVSLTRSFYLVRHQGDQRSERLNRFAEALTRGIRDEVARLEADAMS | not soluble
2 | MGSDKIHHHHHHMEQNAEKRSIVGDDNSTVKRQDTSPSKGIAHIKPEYIVPLKQNENQKVAIYDEEMSSDRMTNEFAGGTNKKNKNGRGKKRGQNKNRDNRQVKEQNVLCPRLIHGDISKCSFGDNCRFVHDINLYLSTKKPEVESNIFPSCPVFNSLGFCPMGFKCRFLSSHLNKEDNILISKKEIDPDAQTIWSVKGEVNHISPERKLDLIKRRFPFTKSNEILEIIDSFQQECRDSMKPEEEVESTPQLKKQDPDVEQPVAPQVEQRNKELSEHRMKQREVYLKYKDTRYFAQEKKPLDLYHKKIVSPLTTVGNLPYRRLMRKLGADVTYSEMALAVPLIQGTNSEWALPKAHTSEFPGFGVQVACSKAWQAAKAAEALANSVSEISEINLNSGCPIDLLYRQGSGSALLDNPARMIRCLNAMNYVSKDIPITVKIRTGTKEGHPIAEGLVKRLVNETDVAAITLHGRSRQQRYTKSADWDYVSQVADTLRSAEADFIETEQGKEGRDSKNRIQFVGNGDVNNFEDWYRYLNGNENIDSVMVARGALIKPWIFEEVESQQYLDKTSTERLDILRDYAQFSMEHWGTDEYGISQCRRFFCEFMSFFHRYVPWVFVKDTL | not soluble
3 | MGSDKIHHHHHHMERAGLAALEDALRNGLSEPFCKAIETIGQSNGRLIITGVGKSGHIGAKLAATFASTGTPAFFVHAAEANHGDLGMIGGDDVVLAISKGGESAELRSIINYSRRFSIPLIALTCSENSSLARASDIVLLVPNEQEACPLGLAPTTSTLMQLALGDALAVALLEARNFTAGDFKVFHPGGKLGASLTLVSDIMHTGDRVPLVNKGTAMPEAVGVLSRKHFGCVGILDEDGRLCGIVTEGDMARNLSRNLAELVVDDIMTRSPKTVKKSVLATSALATLEKFHIGALIVVDDDNRPIGLVHFHDLLRIGVA | not soluble
4 | MGSDKIHHHHHHMERFCCVNQINYIQMNPLEAKFKTSALRSWKTDQADAHKLACLGPTLKQTDNLPIHELIFFELRERVRFHLEIENEQNRLKFQILELLHQTFPGLERLFSSRYSIIALNIAEIFTHPDMVLDIDKEVLITHIFNSTDKGMSMDKATKYALQLRVIAQESYPNVDRHSFLVEKLRLLIQQLKQSIHHPKQLDDAMIQLAQQLDYFENIHSIPGIGKLSTAMIIGEIGDIKRFKSNKQLNAFVGIDIKRYQSGHTHCRDTINKRGNKKARKLLFWVIMNIIRGQHHYDNHVVDYYYKLRKQPNEKPHKTAIIACINRLLKTIHYLVMNHKLYDYQMSPH | not soluble
5 | MGSDKIHHHHHHMERRTILVTGASGFVGGALCRQLATLGSFAIRAASRDLGGASVAGIQAVTVADLSATTDWARALSGVDLVVHAAARVHVMKETASDSLAEFRRVNVDGTLNLARQAAAAGVRRFIFISSIKVNGESSQPGQPLRADDSPAPQDAYGVSKHEAEQGLRQLAAATGMEVVVIRPVLVYGPGVKANFHSMMRWLQRGVPLPFGAVCNRRSLVSLANLVDLVVTCIDHPRAANQTFLASDGDDVSLTQLLRALGLALGRPARLLPVPAGLLRGAVLLIGRRDLAQRLFGTLQVDIEKNRQLLGWYPPCTLEQGLNMTARSFLGARRP | not soluble
6 | MGSDKIHHHHHHMETLQLRDISETALLPLWARAMETLRPDAIIHDDKALEMYQRLNYDFKRFSNAWLSQLAIAIRTDLIDKLVMDFINAHPQAVIINLGAGFDSRYLRVDNGQIHWFDLDLPNVIAARRLFFSDSDRYRMLEQSLFDVSWLEHAAGESDNCLILAEGVLMYFTEQRIKQFFNDLAERIPHARMLLEMLPHGALGQAHLHEAIGWMNAAFQWTLHNIRRLESWNSHIKVRQEWCILDYHWERWGALSLLAWSPWHRYLFGEKLALLEFD | not soluble
7 | MGSDKIHHHHHHMETQDYAFQPGLTVGELLKSSQKDWQAAINHRFVKELFAGTIENKVLKDYLIQDYHFFDAFLSMLGACVAHADKLESKLRFAKQLGFLEADEDGYFQKAFKELKVAENDYLEVTLHPVTKAFQDLMYSAVASSDYAHLLVMLVIAEGLYLDWGSKDLALPEVYIHSEWINLHRGPFFAEWVQFLVDELNRVGKNREDLTELQQRWNQAVALELAFFDIGYDV | soluble
8 | MGSDKIHHHHHHMEVEITITVRKVRIPEDVAVLEIFGQYDKRARYLKKLFNVEFAVRDSEILIKGMDEKSVDAAHRVLDEIISITRDGHLLDWTEFEYLVERVSNSESVKEVYSNNSKGLIIGKKVKPKTLGQKKYLEAVEKNDVVFVIGPAGTGKTYLAVAVALDYLKMGKVNRIILTRPAVEAGEKLGYLPGDLSEKVEPYLRPLYDAIIDITSPDKFNSYRERGIIEIVPLAYMRGRTLNNSFIILDEAQNTTYQQMKMFLTRLGFNSKAVITGDITQVDIEKEKSGLIECQKILEGISGIEFVYLNESDVVRHPLVKKIIKAYEEYERSRKS | not soluble
9 | MGSDKIHHHHHHMEVERISGLKFHKKQDVAIVGAGMTTFKRRLNETGRELSYLAVKQALEEAGLTIDDIEMVVMGSAPDAFDGFHMKGEYLLDGSGGSNRPYMRVFVGGGTGVFAPIAGYWHVASGLADVCLVVCEEKMSSVHPHPQSAFKYIWDPILDRPLNPNLIWIFALEMRRYMHVHNIKHEDIALVSVKNKANALDHPCAQVAEKITVEDVLNSEPMALPVRRLDVSPPSDGAAALIMVAPHIARQLTDNPVWVTGVGWALDTTWWTNRDLYFPRYVAEAAKMAYRMAHITDPRKEIDVAEPYDPFDYKELHHMEGLGLAKKGEAPILTREGVTQRDGDLPTCPSGGLLGVGNPIAATMGVKACEIYWQLAYRAGKRQVAKEVTTGVCQAWGDLMQVGTVMVMSNKR | not soluble
10 | MGSDKIHHHHHHMFDRYEAGETAVLVHIDFSDEERREDLVELQLLVESAGARSVGVITGSRRSPDRKFFIGSGKAEELAALVAATEANVVIFNHALSPAQERNLEQVCQCRVLDRTSLILDIFAQRARTHEGKLQVELAQLRHMSTRLVRGWTHLERQKGGIGLRGPGETQLETDRRLLRGRIKNINKRLERVDKQREQSRRARKRSDMPTVSLVGYTNAGKSTLFNALTSSDVYAADQLFATLDPTLRKLDLPDGAVILADTVGFIRHLPHDLVAAFKATLQETRQAELLLHIVDCADENMADNFEQVQSVLKEIDADEVMQLIVCNKIDLLEDVTPRIEYDDRGKPVRVWVSAHKRLGFDLLLKAITELIGEVIHEFTLRIPATAGHYLGQFYRLDAIQQKEYDDLGNCILSVRLSDADWRRLAKQSQGELETFIFDPSIEKAVC | not soluble
11 | MGSDKIHHHHHHMFDWNDVRFFLALQRNGKLLGAARQMGTTHATVARHIAALEKVLGQPLFVQQADGYSLTAAGRQLLPLAESLENTASQMLDSGSKGHAEVSGVVRLGAPEGLGALFLARHMPALMARYPELEIDLVAVPRFVSVTSREVDIAIALERPQANMVVTRKLTDYCLGLYATQAYLAAHPPIREREDLNGHAILAYVDDLLFTRELMYHHGLCRHPSMPLRSTSVVAQREAALADGGIAVLPYYTTYDDPRLTQILPELRIIRSYWISARSNIRRTLRYRVVWDYVVELCQNMQWLLLQEEQNRSIETA | not soluble
12 | MGSDKIHHHHHHMFFETTFHDATEQEASLPGWRQEYRQVSTGGYDGRTMAILLPGVEILRETISVGTEQMFSAPEGSMIFYYYPKRDRSELVRGEKATGVSGFALNWTNRIGFMDADSDLLMLVLRRDAVADEDRSRIAELVEPPLENAAFLADWLLSLLGGARQQSHPCAWGKFDGVLADVITDRFELLFQKSLVRQTPHIAQTEQIYRKIRDRIFDAPDMPHSVKSLSRDLGVSAFNLRASCQSFTQIPLDRILMMLRLNGARRDLLHARCSPRKVSDIAMDWGFFHWSRFALRYKSLFGETPSQTLKG | not soluble
